Assay results as given in PMC9931771, “Surufatinib plus toripalimab in patients with advanced solid tumors: a single-arm, open-label, phase 1 trial” (Journal of Cancer Research and Clinical Oncology, 2022).

Tests used:
[1] = test system: NEN patients (Ki-67 ≥ 10%); parameters: method as in Lu et al. [2020]; settings: NEN patients (Ki-67 ≥ 10%) after failure of first line therapy; ref Lu et al. [2020]; cited from earlier work
[2] = Phase 1 trial: pharmacokinetics of surufatinib and toripalimab (non-compartmental analysis); format: in vivo, human
From the text: Blood samples were collected for PK evaluation at multiple time points on Cycle 1 Day 1, Cycle 2 Day 1, and Cycle 3 Day 1 for surufatinib and toripalimab, respectively.
DLT events were based on the DLT evaluable population, including patients who received at least 1 cycle of treatment and completed all safety assessments within the DLT assessment window or discontinued early due to DLT in the dose-escalation stage. All safety analyses, progression-free survival (PFS), and overall survival (OS) statistics were based on the safety population, including patients who received at least 1 dose of any study drug. All efficacy endpoints, excluding PFS and OS, were analyzed based on the efficacy evaluable population, including all patients who received at least 1 dose of any study drug and had tumor assessment at baseline and post drug administration prior to initiation of new anti-cancer therapies. The PK analysis was based on the PK population, which included all patients who received at least one dose of the study drug, had at least one PK sample collected and analyzed, and had no protocol deviation that might affect the PK data.
Two-sided 95% confidence interval (CI) of ORR and DCR were computed using the Exact (Clopper–Pearson) method. For time-to-event variables [PFS, OS, DoR (duration of response) and TTR (time to response)], median event time as well as the corresponding 95% CI were estimated using Kaplan–Meier method. All statistical analyses were performed using SAS 9.4 software. Adverse events (AEs) were graded by NCI CTCAE (Common Terminology Criteria for Adverse Events) v4.03, and coded using the Medical Dictionary for Regulatory Activities (MedDRA) v23.1. Treatment-related AEs (TRAEs) referred to AEs related to surufatinib or toripalimab, which were judged by the investigators. PK parameters were calculated by non-compartmental analysis using Phoenix WinNonlin v8.0.

[3] = surufatinib 200 mg + toripalimab 240 mg, C1D1, N 6
[4] = surufatinib 200 mg + toripalimab 240 mg, C2D1, N 4
[5] = surufatinib 200 mg + toripalimab 240 mg, C3D1, N 3
[6] = surufatinib 250 mg + toripalimab 240 mg, C1D1, N 12
[7] = surufatinib 250 mg + toripalimab 240 mg, C2D1, N 11
[8] = surufatinib 250 mg + toripalimab 240 mg, C3D1, N 10
[9] = surufatinib 300 mg + toripalimab 240 mg, C1D1, N 12
[10] = surufatinib 300 mg + toripalimab 240 mg, C2D1, N 10
[11] = surufatinib 300 mg + toripalimab 240 mg, C3D1, N 9

toripalimab
DCR [1]: 35% | ORR [1]: 20% | Toripalimab accumulation ratio of AUC0-τ ([2]; Cycle 2 Day 1 compared to Cycle 1 Day 1, 240 mg Q3W): 1.3–1.5 | Toripalimab exposure (AUC0-τ) across surufatinib dose levels ([2]; concomitant administration with surufatinib at different dose levels): similar | Toripalimab AUC0-τ, geometric mean (CV%) [2, 3]: 15925 (22.8) h×µg/mL | Toripalimab CL, geometric mean (CV%) [2, 3]: 11.1 (30.8) mL/h | Toripalimab Cmax, geometric mean (CV%) [2, 3]: 78.1 (15.2) µg/mL | Toripalimab Tmax, median [2, 3]: 1.96 h | Toripalimab t1/2, median [2, 3]: 231 h | Toripalimab AUC0-τ, geometric mean (CV%) [2, 4]: 21512 (26.4) h×µg/mL | Toripalimab CL, geometric mean (CV%) [2, 4]: 11.2 (24.3) mL/h | Toripalimab Cmax, geometric mean (CV%) [2, 4]: 96.2 (17.9) µg/mL | Toripalimab Tmax, median [2, 4]: 2.63 h | Toripalimab t1/2, median [2, 4]: 320 h | Toripalimab AUC0-τ, geometric mean (CV%) [2, 5]: 24626 (34.9) h×µg/mL | Toripalimab CL, geometric mean (CV%) [2, 5]: 9.75 (29.6) mL/h | Toripalimab Cmax, geometric mean (CV%) [2, 5]: 110 (29.0) µg/mL | Toripalimab Tmax, median [2, 5]: 1.45 h | Toripalimab t1/2, median [2, 5]: 390 h | Toripalimab AUC0-τ, geometric mean (CV%) [2, 6]: 14142 (25.6) h×µg/mL | Toripalimab CL, geometric mean (CV%) [2, 6]: 13.0 (32.9) mL/h | Toripalimab Cmax, geometric mean (CV%) [2, 6]: 71.4 (21.6) µg/mL | Toripalimab Tmax, median [2, 6]: 1.85 h | Toripalimab t1/2, median [2, 6]: 237 h | Toripalimab AUC0-τ, geometric mean (CV%) [2, 7]: 17176 (31.5) h×µg/mL | Toripalimab CL, geometric mean (CV%) [2, 7]: 14.0 (37.2) mL/h | Toripalimab Cmax, geometric mean (CV%) [2, 7]: 83.8 (24.5) µg/mL | Toripalimab Tmax, median [2, 7]: 1.13 h | Toripalimab t1/2, median [2, 7]: 259 h | Toripalimab AUC0-τ, geometric mean (CV%) [2, 8]: 20157 (39.5) h×µg/mL | Toripalimab CL, geometric mean (CV%) [2, 8]: 11.9 (52.0) mL/h | Toripalimab Cmax, geometric mean (CV%) [2, 8]: 97.4 (25.0) µg/mL | Toripalimab Tmax, median [2, 8]: 1.87 h | Toripalimab t1/2, median [2, 8]: 246 h | Toripalimab AUC0-τ, geometric mean (CV%) [2, 9]: 16458 (25.0) h×µg/mL | Toripalimab CL, geometric mean (CV%) [2, 9]: 11.0 (22.1) mL/h | Toripalimab Cmax, geometric mean (CV%) [2, 9]: 81.2 (24.5) µg/mL | Toripalimab Tmax, median [2, 9]: 1.12 h | Toripalimab t1/2, median [2, 9]: 234 h | Toripalimab AUC0-τ, geometric mean (CV%) [2, 10]: 20660 (33.7) h×µg/mL | Toripalimab CL, geometric mean (CV%) [2, 10]: 11.6 (27.6) mL/h | Toripalimab Cmax, geometric mean (CV%) [2, 10]: 98.1 (27.5) µg/mL | Toripalimab Tmax, median [2, 10]: 1.26 h | Toripalimab t1/2, median [2, 10]: 246 h | Toripalimab AUC0-τ, geometric mean (CV%) [2, 11]: 20063 (46.6) h×µg/mL | Toripalimab CL, geometric mean (CV%) [2, 11]: 12.0 (35.8) mL/h | Toripalimab Cmax, geometric mean (CV%) [2, 11]: 103 (33.2) µg/mL | Toripalimab Tmax, median [2, 11]: 1.17 h | Toripalimab t1/2, median [2, 11]: 241 h
